Columns and labels:
[1] = system: diabetic neuropathy (STZ model); conditions: 5MPK, at +2 h
Description: Diabetic neuropathy (STZ) model. Diabetes is induced by a single IP injection of […]. Streptozocin solution (100 μl/10 g, Sigma-aldrich S0130, batch #WXBB7152V). Glycemia is tested before, and 7 days after injection.
The mechanical threshold response of the operated mice was measured with calibrated von Frey filaments (“up/down” method) and the 50% threshold (g) was calculated. The experimenter was blinded to mice treatment. […] Compounds were diluted in PBS (vehicle) and administered s.c. at 10 μL/g, in doses as indicated (gabapentine, 5MPK). Statistical analysis was performed using GraphPad Prism 6.0.

[2] = Plasma exposure of biotinylated peptide after s.c. injection, ELISA; assay type: in vivo, mice; conditions: male, C57bl6N, mouse, sc, s.c. 10 μmol/kg, read-out: time of peak plasma concentration (converted)
Description: Blood sample collection. Biotinylated TAT-di-PEG4-DATC5 (biot-TPD5; 34 mg/kg=[…]) or Biotinylated myr-di-PEG4-DATC5 (biot-mPD5; […]) diluted in 0.9% NaCl was injected s.c in 8 weeks old male C57bl6N mice (18 mice in total) once, and blood samples were collected after 15 min, 30 min, 1 h, 2 h and 6 h (blood samples from 6 mice per timepoint) using Aprotinine-containing BD Vacutainer®K3EDTA tubes (BD Diagnostics). The blood samples were centrifuged at 3500 RPM for 15 min at 4° C. and the plasma was collected in new tubes and freezed down at −20° C.
ELISA. A 96 well NUNC IMMOBILIZER (Cat. No. 436006) plate was coated with 15 μg/mL […] (Sigma-Aldrich, Product no. A8549) diluted in 100 mM sodium carbonate buffer (pH 9.6) and incubated for 2 h at room temperature on shaker. After incubation the plate was washed with PBS-T (1× phosphate buffered saline with 0.1% TWEEN® 20 (Sigma-Aldrich)) 3×, 1 washing step overnight at room temperature on shaker. […] The plate was read at 450 nm (and 570 nm) on a Wallac VICTOR2 1420 Multilabel Counter from PerkinElmer (Hvidovre, Denmark). The measured absorbance was calibrated to a standard curve generated from standard dilutions of biot-TPD5.

purified PICK1 = target: T1, purified PICK1 (Rattus norvegicus, UniProt Q9EP80); experiment: Fluorescence polarization competition, substituted peptide libraries; assay type: binding; conditions: relative to HWLKV; tracer 5FAM-HWLKV 20 nM
T1 construct: Full length rat PICK1 (pET41) was prepared as described earlier; inferred from pET41 vector and Glutathione-Sepharose capture) (N, cleaved yes); made in house; host or cells: E. coli BL21-DE3-pLysS
T1 sequence (Q9EP80 whole entry): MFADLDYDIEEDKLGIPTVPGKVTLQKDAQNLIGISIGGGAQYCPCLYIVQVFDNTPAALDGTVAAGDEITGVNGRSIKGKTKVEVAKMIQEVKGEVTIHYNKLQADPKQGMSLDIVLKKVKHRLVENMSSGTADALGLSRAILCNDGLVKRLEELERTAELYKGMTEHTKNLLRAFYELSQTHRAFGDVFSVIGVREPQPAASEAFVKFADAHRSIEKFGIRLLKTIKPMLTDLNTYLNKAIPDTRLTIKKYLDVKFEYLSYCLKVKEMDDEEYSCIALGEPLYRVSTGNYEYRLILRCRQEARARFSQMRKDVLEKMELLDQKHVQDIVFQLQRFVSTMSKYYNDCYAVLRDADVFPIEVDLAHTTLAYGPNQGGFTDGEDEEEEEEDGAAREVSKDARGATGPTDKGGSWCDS
Description: Full length rat PICK1 (pET41) was prepared as described earlier (Madsen et al., 2005). In brief, PICK1 was expressed in BL21-DE3-pLysS cells and grown at 37° C., induced at OD600=0.6 with 1 mM Isopropyl β-D-1-thiogalactopyranoside (IPTG) and grown 16 hrs at 20° C. Cultures were harvested and re-suspended in 50 mM trisaminomethane (Tris), 125 mM NaCl, 2 mM Dithiothreitol (DTT, Sigma), 1% Triton X-100 (Sigma), 20 μg/mL DNAse 1 and ½ a tablet cOmplete protease inhibitor cocktail (Roche) pr. 1 L culture. The re-suspended pellets were frozen at −80° C. for later purification. The lysate was cleared by centrifugation (36,000×g for 30 min at 4° C.), and the supernatant was incubated with Glutathione-Sepharose 4B beads (GE Healthcare) for 2 hrs at 4° C. under gentle rotation and then centrifuged at 4,000×g for 5 min. The supernatant was removed and the beads were washed twice in 35 mL 50 mM Tris, 125 mM NaCl, 2 mM DTT and 0.01% Triton-X100. The beads were transferred to PD-10 Bio-Spine Chromatography columns (Bio-Rad) and washed with an additional 3 column volumes. Each column was sealed and 0.075 U/μL, Novagen® was added for cleavage 0/N at 4° C. under gentle rotation. PICK1 was eluted on ice and absorption at 280 nm was measured on TECAN plate reader or on a NanoDrop3000. The protein concentration was determined using lambert beers law (A=εcl), εA280PICK1=32320 (cm*mol/L)^−1.
The plate was incubated 20 min on ice in a black half-area Corning Black non-binding surface 96-well plate and the fluorescence polarization was measured directly on a Omega POLARstar plate reader using excitation filter at 488-nm and long pass emission filter at 535-nm.

Compound	fold affinity change, combinatorial peptide library (purified PICK1)	also measured
CC(C)C[C@H](CN)CC(=O)O [Pregabalin, reference compound]	–	maximum reversal of mechanical response threshold [1]: 84.7±10.5 % of baseline
CC(C)C[C@H](NC(=O)[C@H](Cc1c[nH]c2ccccc12)NC(=O)[C@H](Cc1c[nH]cn1)NC(=O)CCOCCOCCN(CCOCCOCCC(=O)N[C@@H](Cc1c[nH]cn1)C(=O)N[C@@H](Cc1c[nH]c2ccccc12)C(=O)N[C@@H](CC(C)C)C(=O)N[C@@H](CCCCN)C(=O)N[C@H](C(=O)O)C(C)C)C(=O)[C@H](CCCNC(=N)N)NC(=O)[C@H](CCCNC(=N)N)NC(=O)[C@H](CCCNC(=N)N)NC(=O)[C@H](CCC(N)=O)NC(=O)[C@H](CCCNC(=N)N)NC(=O)[C@H](CCCNC(=N)N)NC(=O)[C@H](CCCCN)NC(=O)[C@H](CCCCN)NC(=O)[C@H](CCCNC(=N)N)NC(=O)CNC(=O)[C@H](Cc1ccc(O)cc1)NC(=O)CCCC[C@@H]1SC[C@@H]2NC(=O)N[C@@H]21)C(=O)N[C@@H](CCCCN)C(=O)N[C@H](C(=O)O)C(C)C [biotinylated Tat-NPEG4-(HWLKV)2]	–	Tmax [2]: 30 min
EIRV (DAT-C5 variant) [4-mer peptide of combinatorial library]	optimal 4-mer sequences	–
IIV [3-mer peptide of combinatorial library]	optimal 3-mer sequences	–
IRV [3-mer peptide of combinatorial library]	optimal 3-mer sequences	–
NSVRV (DAT-C5 variant) [5-mer peptide of combinatorial library]	optimal 5-mer sequences	–
TSIRV (DAT-C5 variant) [5-mer peptide of combinatorial library]	optimal 5-mer sequences	–
YIIV (DAT-C5 variant) [4-mer peptide of combinatorial library]	optimal 4-mer sequences	–

From patent publication US20230346948A1, “Lipid conjugated peptide inhibitors of PICK1” (University of Copenhagen, priority 2020, published 2023)
